Here are results for one molecule from publication doi:10.1101/2021.02.12.430940 (bioRxiv, 2021).

The experiment concerns the target SARS-CoV-2 RBD-mFc (SARS-CoV-2, reference (Wuhan-Hu-1) by …, UniProt P0DTC2). Nature of the experiment: flow cytometry on cells. For orientation: In flow cytometry, cells or beads pass a laser one at a time.

B1: mAb-82 (antibody, V domains shown)
VH: QVQLVQSGAEVKKPGSSVKVSCKASGGTFSSYAISWVRQAPGQGLEWMGGIIPIFGTANYAQKFQGRVTITADESTSTAYMELSSLRSEDTAVYYCARGNDDSSGYYSHYYYGMDVWGQGTTVTVSS
VL: QTVVTQEPSFSVSPGGTVTLTCGLSSGSVSTSYYPSWYQQTPGQAPRTLIYSTNTRSSGVPDRFSGSILGNKAALTITGAQADDESDYYCVLYMGSGAVFGGGTQLTVL
Turning to B1, the binding result is listed as “binds”.
